From patent US20100260678A1

B1: Fab fragment of EM164 antibody (Fab, V domains shown)
VH: QVQLQQSGAELVKPGASVKLSCKASGYTFTSYWMHWVKQRPGQGLEWIGEINPSNGRTNYNEKFKRKATLTVDKSSSTAYMQLSSLTSEDSAVYYFARGRPDYYGSSKWYFDVWGAGTTVTVS
VL: DVLMTQTPLSLPVSLGDQASISCRSSQSIVHSNVNTYLEWYLQKPGQSPKLLIYKVSNRFSGVPDRFSGSGSGTDFTLRISRVEAEDLGIYYCFQGSHVPPTFGGGTKLEIKR
modifications: here or on the partner: biotinylated with PEO-maleimide-biotin reagent (sites not given)
B2: murine anti-IGF-I receptor antibody EM164 (antibody, V domains shown)
VH: B1 VH
VL: B1 VL

What was measured:
Settings in all cases: remark: other sources report otherwise
[1] = biological target: T1, biotinylated full-length human IGF-I receptor, captured on streptavidin (human), P08069; test: similar ELISA binding titration on human IGF-I receptor
[2] = biological target: human IGF-I receptor on human tumor cells (human), P08069; test: IGF-I displacement assay on MCF-7 cells at 4° C., 10-100 µg/mL antibody, capture ELISA of the lysate
[3] = biological target: human IGF-I receptor on human tumor cells (human), P08069; test: IGF-I displacement assay on MCF-7 cells at 37° C., 10-100 µg/mL antibody, capture ELISA of the lysate
[4] = biological target: T1, biotinylated full-length human IGF-I …; test: ELISA titration on biotinylated human IGF-I receptor captured on streptavidin; non-linear regression for one-site binding

Binder | Kd [1] [nM] | percent displacement of pre-bound biotinylated IGF-I [2] [%] | percent displacement of pre-bound biotinylated IGF-I [3] [%] | Kd [4] [nM]
B1 | 0.3 |  |  | 
B2 |  | 50 | 90 | 0.1
